Assay results as given in IntAct's records for PubMed 18927509.

B1: Cell cycle serine/threonine-protein kinase CDC5/MSD2 (Saccharomyces cerevisiae), P32562 (parent)
chain: MSLGPLKAINDKQLNTRSKLVHTPIKGNTADLVGKENHFKQTKRLDPNNDHHHQPAQKKKREKLSALCKTPPSLIKTRGKDYHRGHFLGEGGFARCFQIKDDSGEIFAAKTVAKASIKSEKTRKKLLSEIQIHKSMSHPNIVQFIDCFEDDSNVYILLEICPNGSLMELLKRRKVLTEPEVRFFTTQICGAIKYMHSRRVIHRDLKLGNIFFDSNYNLKIGDFGLAAVLANESERKYTICGTPNYIAPEVLMGKHSGHSFEVDIWSLGVMLYALLIGKPPFQARDVNTIYERIKCRDFSFPRDKPISDEGKILIRDILSLDPIERPSLTEIMDYVWFRGTFPPSIPSTVMSEAPNFEDIPEEQSLVNFKDCMEKSLLLESMSSDKIQRQKRDYISSIKSSIDKLEEYHQNRPFLPHSLSPGGTKQKYKEVVDIEAQRRLNDLAREARIRRAQQAVLRKELIATSTNVIKSEISLRILASECHLTLNGIVEAEAQYKMGGLPKSRLPKIKHPMIVTKWVDYSNKHGFSYQLSTEDIGVLFNNGTTVLRLADAEEFWYISYDDREGWVASHYLLSEKPRELSRHLEVVDFFAKYMKANLSRVSTFGREEYHKDDVFLRRYTRYKPFVMFELSDGTFQFNFKDHHKMAISDGGKLVTYISPSHESTTYPLVEVLKYGEIPGYPESNFREKLTLIKEGLKQKSTIVTVD
partner: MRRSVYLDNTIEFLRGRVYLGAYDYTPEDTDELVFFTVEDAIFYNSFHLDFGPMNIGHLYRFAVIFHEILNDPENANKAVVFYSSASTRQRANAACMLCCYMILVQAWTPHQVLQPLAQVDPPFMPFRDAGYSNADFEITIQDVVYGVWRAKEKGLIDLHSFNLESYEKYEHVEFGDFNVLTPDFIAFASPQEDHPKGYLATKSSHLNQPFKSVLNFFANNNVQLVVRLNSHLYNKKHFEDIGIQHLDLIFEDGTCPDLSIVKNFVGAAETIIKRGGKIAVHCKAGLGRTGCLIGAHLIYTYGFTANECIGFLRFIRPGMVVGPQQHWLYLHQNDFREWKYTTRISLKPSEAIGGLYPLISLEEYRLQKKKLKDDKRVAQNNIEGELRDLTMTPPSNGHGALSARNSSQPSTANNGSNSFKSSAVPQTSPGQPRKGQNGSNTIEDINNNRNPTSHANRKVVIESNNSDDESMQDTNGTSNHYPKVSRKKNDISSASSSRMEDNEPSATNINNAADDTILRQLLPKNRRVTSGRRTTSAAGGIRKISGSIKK

Variants of: B1
Conditions: with cdc14_yeast CDC14, Q00684

effect of a mutation on the interaction	Variant
decreasing interaction	H641A;K643M
